Each block holds one molecule with its values, some of them ahead of it. Ends that are not written are not given here.
What was measured:
recombinant memapsin 2 [1] = target: T1, recombinant memapsin 2 (human, UniProt P56817 14-454, limits assumed); experiment: enzyme inhibition with a synthetic fluorogenic peptide substrate
T1 construct: also called M2; beta-secretase

[2] = target: M2pd (modified M2 containing amino acids from Ala-8P to Ala326) (human) (UniProt P56817); experiment: cell-based or functional assay
recombinant memapsin 2 [3] = target: T1, recombinant memapsin 2; experiment: comparison of inhibition constants
recombinant memapsin 2 [4] = target: T1, recombinant memapsin 2; experiment: Ki as stated in the crystallisation example; assay not described there

T1 sequence (P56817 14-454 limits assumed): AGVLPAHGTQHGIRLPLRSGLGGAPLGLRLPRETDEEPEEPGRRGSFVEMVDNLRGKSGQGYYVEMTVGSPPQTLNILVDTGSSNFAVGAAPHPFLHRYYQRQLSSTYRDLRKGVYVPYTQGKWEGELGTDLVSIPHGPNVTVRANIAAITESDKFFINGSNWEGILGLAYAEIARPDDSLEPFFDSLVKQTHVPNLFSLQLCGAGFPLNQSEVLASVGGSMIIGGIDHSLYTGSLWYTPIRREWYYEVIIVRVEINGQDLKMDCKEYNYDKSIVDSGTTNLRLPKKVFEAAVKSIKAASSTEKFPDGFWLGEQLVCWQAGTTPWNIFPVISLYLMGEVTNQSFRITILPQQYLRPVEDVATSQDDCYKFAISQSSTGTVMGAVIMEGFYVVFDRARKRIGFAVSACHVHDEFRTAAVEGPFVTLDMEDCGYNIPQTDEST
Chain of M2pd (modified M2 containing amino acids from Ala-8P to Ala326) (human) (P56817 22-501 limits assumed): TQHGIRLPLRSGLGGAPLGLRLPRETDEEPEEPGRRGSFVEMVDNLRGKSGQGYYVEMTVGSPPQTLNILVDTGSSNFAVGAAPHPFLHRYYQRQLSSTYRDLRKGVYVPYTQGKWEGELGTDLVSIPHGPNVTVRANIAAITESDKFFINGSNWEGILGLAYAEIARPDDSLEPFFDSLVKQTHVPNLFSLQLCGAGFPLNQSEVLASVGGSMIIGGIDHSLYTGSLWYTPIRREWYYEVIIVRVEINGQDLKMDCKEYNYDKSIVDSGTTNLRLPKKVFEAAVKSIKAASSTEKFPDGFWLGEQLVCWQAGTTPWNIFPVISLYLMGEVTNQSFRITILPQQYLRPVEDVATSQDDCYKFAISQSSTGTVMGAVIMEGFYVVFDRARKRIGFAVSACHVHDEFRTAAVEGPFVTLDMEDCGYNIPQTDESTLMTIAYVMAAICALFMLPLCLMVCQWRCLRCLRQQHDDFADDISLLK

Ki (recombinant memapsin 2 [1]): 30 nM
Molecule: OM99-1 (peptide)

IC50 (inhibition of enzyme activity) [2]: 300000 nM
Molecule: Pepstatin A (peptide)

fold increase in Ki against OM99-2 (recombinant memapsin 2 [3]): 10 fold
Molecule: VNLAAEF (also: Leu3-Ala4 bond replaced by hydroxyethylene isostere -CH(OH)-CH2-) [OM99-2 with P4 Glu absent]

Ki (recombinant memapsin 2 [4]): 10 nM
B1: OM99-2 (peptide)
peptide: EVNLAAEF
modifications: also: Leu4-Ala5 peptide bond replaced by hydroxyethylene isostere -CH(OH)-CH2-
notes: Synthetic substrate analogue based on the beta-secretase site of Swedish mutant APP
